Assay results published in patent US20240294644A1 (BLUEFIN BIOMEDICINE, published 2024).
Residue numbers refer to the chain shown, from its start. Read-outs that look alike come from different tables or passages of the source.

T1: recombinant human VTCN1-his protein (human, UniProt Q7Z7D3 25-259, limits assumed)
T1 construct: also called human VTCN1 protein; recombinant VTCN1
T1 sequence: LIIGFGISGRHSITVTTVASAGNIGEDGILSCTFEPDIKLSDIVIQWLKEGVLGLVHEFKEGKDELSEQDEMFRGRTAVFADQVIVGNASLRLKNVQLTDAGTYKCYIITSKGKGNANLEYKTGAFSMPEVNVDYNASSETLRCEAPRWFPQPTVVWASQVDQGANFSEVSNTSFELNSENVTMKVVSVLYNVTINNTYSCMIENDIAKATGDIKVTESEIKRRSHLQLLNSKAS

T2: cynomolgus monkey VTCN1 expressed on 293 cells (cynomolgus monkey, UniProt A0A2K5U6P5 25-282)
T2 construct: whole, on cells
T2 sequence: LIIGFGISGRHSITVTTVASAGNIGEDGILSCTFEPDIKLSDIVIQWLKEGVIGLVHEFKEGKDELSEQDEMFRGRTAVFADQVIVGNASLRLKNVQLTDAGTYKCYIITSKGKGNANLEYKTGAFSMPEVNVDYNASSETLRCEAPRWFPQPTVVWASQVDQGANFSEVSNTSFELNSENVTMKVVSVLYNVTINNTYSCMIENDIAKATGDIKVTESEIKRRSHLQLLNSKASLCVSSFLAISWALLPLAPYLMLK

T3: mouse VTCN1 expressed on 293 cells (mouse, UniProt Q7TSP5 25-257)
T3 construct: whole, on cells
T3 sequence (looked up): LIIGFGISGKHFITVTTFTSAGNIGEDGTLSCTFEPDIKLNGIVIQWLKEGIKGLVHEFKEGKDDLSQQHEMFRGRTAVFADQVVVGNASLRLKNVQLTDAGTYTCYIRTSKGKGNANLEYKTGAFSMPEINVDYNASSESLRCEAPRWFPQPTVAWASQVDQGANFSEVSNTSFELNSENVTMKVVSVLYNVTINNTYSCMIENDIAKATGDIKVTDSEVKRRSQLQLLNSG

T4: human VTCN1 expressed on cells (293-VTCN1 cells; SKBR3, MX-1 and ZR-75-1 cells that express it naturally) (human, UniProt Q7Z7D3 25-282)
T4 construct: The cDNA was bought from Origene
T4 sequence: T2 sequence with I53L, L242F, A252S

T5: VTCN1 IgC domain only construct expressed on 293 cells (human, UniProt Q7Z7D3 150-259, limits assumed)
T5 construct: The construct lacks the IgV domain
T5 sequence: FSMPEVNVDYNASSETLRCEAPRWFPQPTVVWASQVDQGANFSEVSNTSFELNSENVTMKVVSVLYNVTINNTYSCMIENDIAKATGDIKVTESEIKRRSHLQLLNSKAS

T6: VTCN1 IgV domain only construct expressed on 293 cells (human, UniProt Q7Z7D3 29-149, limits assumed)
T6 construct: The construct lacks the IgC domain
T6 sequence: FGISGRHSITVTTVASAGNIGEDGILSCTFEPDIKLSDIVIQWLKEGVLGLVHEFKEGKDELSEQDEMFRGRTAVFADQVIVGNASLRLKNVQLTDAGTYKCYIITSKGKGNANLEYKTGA

T7: mouse VTCN1 protein (mouse, UniProt Q7TSP5 25-257, limits assumed)
T7 construct: The construct and its tag are not described
T7 sequence (looked up): T3 sequence (looked up)

T8: cynomolgus monkey VTCN1 protein (cynomolgus monkey, UniProt A0A2K5U6P5 25-259)
T8 construct: The construct and its tag are not described; also called cyno VTCN1
T8 sequence: T1 sequence with L53I

B1: hu6D9_57A3 (antibody, V domains shown)
VH: QVQLVESGGGVVQPGRSLRLSCAVSGFSLTSYGVQWVRQAPGKGLEWLGVIWSSGSTDYNAAFLSRLTISKDNSKNTVYFQMNSLRAEDTAVYYCARDVTTIVEGFAHWGQGTLVTVSS
VL: DIQMTQSPSSLSASVGDRVTITCKASEKVGTYVSWYQQKPGKAPKLLIYGASNRYTGVPSRFSGSGSGTDFTLTISSLQPEDFATYYCGQTYSYPFTFGQGTKLEIK
notes: Humanized 6D9
B2: hu6D9_57A4 (antibody, V domains shown)
VH: B1 VH with G9P, G49A, N76S
VL: B1 VL
notes: Humanized 6D9
B3: hu6D9_57A5 (antibody, V domains shown)
VH: B1 VH with G49A
VL: B1 VL
notes: Humanized 6D9
B4: hu6D9_66B1 (antibody, V domains shown)
VH: B1 VH with S28T, L29F, T30S
VL: B1 VL
notes: Humanized 6D9
B5: hu6D9_66C2 (antibody, V domains shown)
VH: B1 VH with Q1E, V11L, R16G, N73T
VL: B1 VL with G66R, L104V
notes: Humanized 6D9
B6: 7C8 (antibody, V domains shown)
VH: QVQLQESGPGLVKPSETLSLTCAVSGYSISSGYYWGWIRQPPGKGLEWIGSIYHSGTTYYNPSLKSRVTISVDTSKNQFSLKLNSVTAADTAVYYCATYSSGWYFYFDYWGQGTLVTVSS
VL: DIQLTQSPSFLSASVGDRVTITCRASQGISSYLAWYQQKPGKAPKLLIYVASTLQSGVPSRFSGSGSGTEFTLTISSLQPEDFATYYCQQLNSYPITFGQGTRLEIK
notes: Fully human antibody; also called VTCN1 antibody 7C8
B7: 12B5_44B1 (antibody, V domains shown)
VH: QVQLVQSGAEVKKPGSSMKVSCKASGDTFSSYAISWVRQAPGQGLEWMAGIIPVFGTAHNAQKFQGRVTITADKSTSTAYMELSSLRSEDTAVYYCTRGGPYFDYWGQGTLVTVSS
VL: EIVMTQSPATLSVSPGERAALSCRASQSVSSNLAWYQQKPGQAPRLLIYGVSTRATGIPDRFNGSGSGTEFTLTISSLQSEDFGAYYCQQYKKWPFIFGPGTKLEIK
notes: Fully human antibody
B8: 14D6_60B5 (antibody, V domains shown)
VH: QVQLVHSGAEVKRPGSSVKVSCKASGGTFSSYAISWVRQAPGQGLEWMGGIIPIFGIANYAQKFQGRVTIIADKSTRTAYMELSSLRSEDTAVYYCARGGPYFDYWGQGILVTVSS
VL: B7 VL with A20T, V51A, D60A, N63S, G84A, A85V, K92N, I97T, L104V, E105D
notes: Fully human antibody
B9: 16H12_60B4 (antibody, V domains shown)
VH: B8 VH with L4V, H6Q, R13K, G27D, S31N, A58T, A97S
VL: B7 VL with A20T, V51A, D60A, N63S, G84A, A85V, I97T, L104V, E105D
notes: Fully human antibody
B10: 4C7_63A1 (antibody, V domains shown)
VH: QVQLQESGPGLVKPSGTLSLTCAVSGGSISSSNWWSWVRQPPGKGLEAIGEIYHSGNTNYNPSLKSRVTISVDKSKNQFSLKLSSVTAADTAIYYCARDGYSSGWYWGYFDYWGQGTLVTVSS
VL: EIVMTQSPATLSVSPGERATLSCRASQSVNSNLAWYQQKPGQAPWLLIYGASTRATGIPARFSGSGSGTEFTLTISSLQSEDFAVYYCQQYNHWPYTFGQGTKLEIK
notes: Fully human antibody
B11: 7G7_44C6 (antibody, V domains shown)
VH: QVQLQESGPGLVKPSETLSLTCTVSGGSISHYYWSWIRQPPGKGLEWIGYIYYSGPTNYNPSLKSRVTISVDTSKNQFSLKLSSVTAADTAVYYCARTYYYGSGSFPDAFDIWGQGTMVTVSS
VL: KIVLTQSPATLSLSPGERATLSCRASQSVSSYLAWYQQTPGQAPRLLIYDASNRATGIPARFSVSGSGTDFTLTISSLEPEDFAVYYCQQRSSWPLTFGGGTKLEIK
notes: Fully human antibody
B12: 13H9_44D2 (antibody, V domains shown)
VH: QVQLQESGPGLVKPSETLSLTCTVSGGSISSYYWSWIRQPPGKGLEWIGYIYYSGSTNNNPSLKSRVTISVDTSKNQFSLKLISVTAADTAVYYCARVYNNYDWGFDYWGQGTLVTVSS
VL: B10 VL with N30S, W45R, S76R, N92H, H93N, Y96L, Q100G
notes: Fully human antibody

What was measured:
[1] = target: T1, recombinant human VTCN1-his protein; experiment: BLI (OCTET), human VTCN1 protein
[2] = target: T2, cynomolgus monkey VTCN1 expressed on …; experiment: flow cytometry of serially diluted antibody on 293-cynoVTCN1 cells, dye-labelled secondary antibody, MFI
[3] = target: T3, mouse VTCN1 expressed on 293 cells; experiment: flow cytometry of serially diluted antibody on 293-mouseVTCN1 cells, dye-labelled secondary antibody, MFI
[4] = target: T4, human VTCN1 expressed on cells …; experiment: flow cytometry of serially diluted antibody on SKBR3 cells (natural VTCN1), dye-labelled secondary antibody, MFI
[5] = target: T4, human VTCN1 expressed on cells …; experiment: flow cytometry and immunofluorescence on cells
[6] = target: T5, VTCN1 IgC domain only construct …; experiment: flow cytometry on 293-VTCN1-IgC domain cells
[7] = target: T6, VTCN1 IgV domain only construct …; experiment: flow cytometry on 293-VTCN1-IgV domain cells
[8] = target: T3, mouse VTCN1 expressed on 293 cells; experiment: flow cytometry on 293-VTCN1 (mouse) cells
mouse VTCN1 protein = target: T7, mouse VTCN1 protein; experiment: BLI (OCTET), mouse VTCN1 protein
[9] = target: T1, recombinant human VTCN1-his protein; experiment: BLI (OCTET), human VTCN1 protein; remark: listed apart in the source
[10] = target: T4, human VTCN1 expressed on cells …; experiment: flow cytometry, antibody titration on SKBR3 cells (endogenous VTCN1)
[11] = target: T4, human VTCN1 expressed on cells …; experiment: flow cytometry, antibody titration on 293-huVTCN1 cells
[12] = target: T8, cynomolgus monkey VTCN1 protein; experiment: BLI (OCTET), cynomolgus monkey VTCN1 protein
[13] = target: T3, mouse VTCN1 expressed on 293 cells; experiment: flow cytometry, antibody titration on 293-muVTCN1 cells
[14] = target: T2, cynomolgus monkey VTCN1 expressed on …; experiment: flow cytometry, antibody titration on 293-cynoVTCN1 cells

Binder | Kd [1] | Kd (mouse VTCN1 protein) | Kd [9] | EC50 [10] | EC50 [11] | Kd [12] | EC50 [13] | EC50 [14] | also measured
B1 | 28 nM |  |  |  |  |  |  |  | 
B2 | 36 nM |  |  |  |  |  |  |  | 
B3 | 36 nM |  |  |  |  |  |  |  | EC50 (read off the curve) [2]: ~2 nM; binding result [3]: binds; EC50 (read off the curve) [4]: ~6 nM
B4 | 27 nM |  |  |  |  |  |  |  | 
B5 | 44 nM |  |  |  |  |  |  |  | 
B6 |  |  |  |  |  |  |  |  | binding result [5]: binds; binding result [6]: no binding; binding result [7]: no binding; binding result [8]: binds
B7 |  | 38 nM | 2 nM | 35.5 nM | 9 nM | 2 nM | 28.5 nM | 9 nM | 
B8 |  | 56 nM | 5 nM | 51.4 nM | 4.6 nM | 5 nM | 11.4 nM | 5.1 nM | 
B9 |  | 27 nM | 0.7 nM | 4 nM | 1.7 nM | 1 nM | 4.8 nM | 2.1 nM | 
B10 |  | 44 nM | 49 nM | 4.4 nM | 2.1 nM | 47 nM | 3.5 nM | 1.7 nM | 
B11 |  |  | 192 nM | 36.8 nM | 2.2 nM |  | 45 nM |  | 
B12 |  | 268 nM | 128 nM | 1.9 nM | 1.2 nM |  | 1.8 nM |  | 
